Data as given in publication PMC5081515, “Crystal structures and inhibition of Trypanosoma brucei hypoxanthine–guanine phosphoribosyltransferase” (Scientific Reports, 2016).

How the values were obtained:
[1] = substrate: O=c1[nH]cnc2nc[nH]c12; test: purified protein, by the assay type; conditions: other: 0.03 M phosphate buffer, 0.012 M MgCl2, 1 mM DTT, pH 7.4, 25 °C, bases at 500 μM PRib-PP, PRib-PP at 40 μM guanine
[2] = substrate: O=P(O)(O)OC[C@H]1O[C@H](OP(=O)(O)OP(=O)(O)O)[C@H](O)[C@@H]1O; test: purified protein, by the assay type; conditions: other: 0.03 M phosphate buffer, 0.012 M MgCl2, 1 mM DTT, pH 7.4, 25 °C, bases at 500 μM PRib-PP, PRib-PP at 40 μM guanine

B1: TbrHGPRT (Trypanosoma brucei brucei) (protein)
chain: MEPACKYDFATSVLFTEAELHTRMRGVAQRIADDYSNCNLKPLENPLVIVSVLKGSFVFTADMVRILGDFGVPTRVEFLRASSYGHDTKSCGRVDVKADGLCDIRGKHVLVLEDILDTALTLREVVDSLKKSEPASIKTLVAIDKPGGRKIPFTAEYVVADVPNVFVVGYGLDYDQSYREVRDVVILKPSVYETWGKELERRKAAGEAKR
Question: How did the Km [1] turn out when B1 was run?
Answer: 5.5 ± 0.3 µM

Question: What about the kcat [1] of the same protein?
Answer: 17.1 s⁻¹

Question: What about the kcat/Km [1] of the same protein?
Answer: 3.1e+06 M⁻¹ s⁻¹

Question: And the Km [2]?
Answer: 103 ± 16 µM
